Patent US20130244255A1, “ANTIBODIES DIRECTED TO GPNMB AND USES THEREOF” (priority 2006, published 2013)

Tests used:
[1] = molecular target: GPNMB (CG56972) as expressed by human cell lines (human) (UniProt Q14956); test: FACS on UACC-62 cells, antibody 1 ug/mL
[2] = molecular target: GPNMB (CG56972) as expressed by human cell lines (human) (UniProt Q14956); test: flow cytometry on SK-MEL-2 cells, anti human IgG PE; control sample
[3] = molecular target: GPNMB (CG56972) as expressed by human cell lines (human) (UniProt Q14956); test: flow cytometry on HEK293 cells transfected with GPNMB plasmid, secondary antibody alone (background); on empty-vector cells printed as 5.86
[4] = molecular target: GPNMB (CG56972) as expressed by human cell lines (human) (UniProt Q14956); test: flow cytometry on HEK293 cells transfected with GPNMB plasmid, PE-conjugated secondary antibody; the same sample on empty-vector cells is printed as 7.96

Sequence of GPNMB (CG56972) as expressed by human cell lines (human) (Q14956 23-492): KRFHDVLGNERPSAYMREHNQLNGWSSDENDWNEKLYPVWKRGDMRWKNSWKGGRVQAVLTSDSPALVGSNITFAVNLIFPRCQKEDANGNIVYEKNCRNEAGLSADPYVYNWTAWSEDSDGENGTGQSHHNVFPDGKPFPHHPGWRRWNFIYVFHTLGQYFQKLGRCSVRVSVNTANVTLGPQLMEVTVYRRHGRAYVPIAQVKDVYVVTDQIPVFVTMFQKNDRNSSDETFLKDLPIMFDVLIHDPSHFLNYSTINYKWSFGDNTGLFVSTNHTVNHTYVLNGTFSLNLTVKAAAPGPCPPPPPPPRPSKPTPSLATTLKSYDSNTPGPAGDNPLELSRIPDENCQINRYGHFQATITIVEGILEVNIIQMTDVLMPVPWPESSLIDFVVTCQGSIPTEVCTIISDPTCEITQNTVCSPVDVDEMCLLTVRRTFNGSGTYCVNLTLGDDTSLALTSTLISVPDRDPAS

CR011.2.6.2 (antibody)
Geo Mean Ratio (relative to pK16) [1]: 1.9

Control (antibody)
Geo Mean [2]: 3.03 | Median [2]: 2.84

Secondary Ab-PE (antibody)
Geometric mean [3]: 7.69

isotype-matched control IgG2 antibody
Geometric mean [4]: 8.63
